From patent US20160177397, “APTAMER FOR DETECTION OF ALPHA-METHYLACYL-COA RACEMASE AND DIAGNOSTIC KIT THEREOF” (NATIONAL TAIWAN UNIVERSITY, published 2016)

T1: AMACR (alpha-methylacyl-CoA racemase, isoform CRA_c), homemade recombinant (Homo sapiens, UniProt Q9UHK6 Q9UHK6:1-382)
T1 sequence: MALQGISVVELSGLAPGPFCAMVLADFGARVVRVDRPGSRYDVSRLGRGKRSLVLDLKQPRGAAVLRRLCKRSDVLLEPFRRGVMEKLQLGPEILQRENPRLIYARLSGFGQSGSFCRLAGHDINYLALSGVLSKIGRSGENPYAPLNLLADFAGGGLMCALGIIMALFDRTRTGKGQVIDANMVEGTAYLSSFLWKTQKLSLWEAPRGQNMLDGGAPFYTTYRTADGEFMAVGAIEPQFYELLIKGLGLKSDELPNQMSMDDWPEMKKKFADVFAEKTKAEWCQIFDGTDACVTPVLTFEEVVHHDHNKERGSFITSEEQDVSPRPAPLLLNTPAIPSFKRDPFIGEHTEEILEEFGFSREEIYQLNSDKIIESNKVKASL

B1: AMC56 (ssDNA)
DNA: CCCTACGGCGCTAACCCAGCTACTCTAGAACCCATTATATTTTGGGCCACCGTGCTACAA
B2: AMC55 (ssDNA)
DNA: CCCTACGGCGCTAACCAGTATGTTCCGGATTGGAGAGCTCCTGTTGCCACCGTGCTACAA
B3: AMC51 (ssDNA)
DNA: CCCTACGGCGCTAACCCATGCTACGAATTCGTTGTTAAACAATAGGCCACCGTGCTACAA

How the values were obtained:
[1] = biological target: T1, AMACR (alpha-methylacyl-CoA racemase, …); experiment: apparent Kd; fluorescent ELAA, same buffer, room temperature; conditions: label: biotin; stem-loops, B-form-like CD
Description: (§1) Enzyme-linked aptamer assays with typical black opaque 96-well polystyrene microtiter plates that resembled ELISA assays were carried out for (1) assessment of the affinity and specificity of the selected AMACR binding aptamers and (2) proof-of-concept fluorescent AMACR detection using aptamers. For the first task, varied concentrations of aptamers were tested with a constant protein concentration ([…]); for the second task, varied concentrations of proteins were detected using a constant aptamer concentration (500 nM). Both used the following ELAA protocol unless otherwise noted. For protein coating, AMACR diluted in 0.05 M sodium carbonate buffer (pH9.6) was added to the wells of the plates (100 μL/well) and incubated at 4° C. overnight. After incubation, the wells were washed three times with 200 μL/well of selection buffer containing 0.05% Tween 20. For blocking, each AMACR-coated well was added with 200 μL of 3 wt % BSA in the selection buffer containing 0.05% Tween 20 and was then incubated at 37° C. for 2 h. Afterward, wells were washed as previously described. Before protein assays, biotin-labeled aptamer sequences were suspended in the selection buffer, heated to 95° C. for 5 min, and gradually cooled to 25° C. […] Finally, the fluorescent signal of each well was read by a fluorescent microplate reader (excitation at 435 nm and emission at 555 nm). […]

[2] = biological target: Bovine serum albumin (BSA) (Bos taurus, UniProt P02769 P02769:25-607); experiment: ELAA, 0.5 uM aptamer, 0.2 uM protein; conditions: tags: Sigma-Aldrich; label: biotin; stem-loops, B-form-like CD
Sequence of Bovine serum albumin (BSA) (P02769 25-607, one chain of several): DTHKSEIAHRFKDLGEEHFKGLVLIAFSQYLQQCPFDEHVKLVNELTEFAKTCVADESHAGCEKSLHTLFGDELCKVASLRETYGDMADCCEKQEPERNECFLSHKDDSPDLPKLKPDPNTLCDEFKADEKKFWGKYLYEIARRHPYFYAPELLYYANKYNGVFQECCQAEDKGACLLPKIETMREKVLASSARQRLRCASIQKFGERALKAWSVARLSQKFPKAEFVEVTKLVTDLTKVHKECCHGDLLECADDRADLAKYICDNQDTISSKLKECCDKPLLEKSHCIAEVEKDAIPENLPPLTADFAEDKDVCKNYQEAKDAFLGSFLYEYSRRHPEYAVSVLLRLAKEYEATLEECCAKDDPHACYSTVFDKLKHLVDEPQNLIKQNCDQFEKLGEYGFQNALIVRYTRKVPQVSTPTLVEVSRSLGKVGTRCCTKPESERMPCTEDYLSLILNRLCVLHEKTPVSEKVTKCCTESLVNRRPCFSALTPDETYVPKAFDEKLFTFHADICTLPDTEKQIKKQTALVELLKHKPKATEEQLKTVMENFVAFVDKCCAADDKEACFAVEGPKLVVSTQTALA
Description: (§2) Enzyme-linked aptamer assays with typical black opaque 96-well polystyrene microtiter plates that resembled ELISA assays were carried out for (1) assessment of the affinity and specificity of the selected AMACR binding aptamers and (2) proof-of-concept fluorescent AMACR detection using aptamers. For the first task, varied concentrations of aptamers were tested with a constant protein concentration ([…]); for the second task, varied concentrations of proteins were detected using a constant aptamer concentration (500 nM). Both used the following ELAA protocol unless otherwise noted. For protein coating, AMACR diluted in 0.05 M sodium carbonate buffer (pH9.6) was added to the wells of the plates (100 μL/well) and incubated at 4° C. overnight. After incubation, the wells were washed three times with 200 μL/well of selection buffer containing 0.05% Tween 20. For blocking, each AMACR-coated well was added with 200 μL of 3 wt % BSA in the selection buffer containing 0.05% Tween 20 and was then incubated at 37° C. for 2 h. Afterward, wells were washed as previously described. Before protein assays, biotin-labeled aptamer sequences were suspended in the selection buffer, heated to 95° C. for 5 min, and gradually cooled to 25° C. Then each protein-coated well was added with 100 μL of aptamer solution (in the selection buffer) and was incubated at room temperature for 1 h followed by the same wash procedure. After that, each well was added with two drops (ca. 100 μL) of an alkaline phosphatase-conjugated streptavidin (Strep-AP) solution (0.003 mg/mL) (Abcam) and incubated at room temperature for 30 min followed by the washes. For fluorescent signal development, each well was added with 100 μL of AttoPhos® AP fluorescent substrate solution (Promega) and incubated in dark for at least 15 min. Finally, the fluorescent signal of each well was read by a fluorescent microplate reader (excitation at 435 nm and emission at 555 nm).
(§3) FIG. 5A represented the results of the equilibrium AMACR total binding assays using the fluorescent ELAA format for AMC51, AMC55, and AMC56.

[3] = biological target: T2, Human serum albumin (HSA) (Homo sapiens, UniProt P02768 P02768:25-609); experiment: ELAA, 0.5 uM aptamer, 0.2 uM protein; conditions: tags: Sigma-Aldrich; label: biotin; stem-loops, B-form-like CD
T2 sequence (P02768 25-609, one chain of several): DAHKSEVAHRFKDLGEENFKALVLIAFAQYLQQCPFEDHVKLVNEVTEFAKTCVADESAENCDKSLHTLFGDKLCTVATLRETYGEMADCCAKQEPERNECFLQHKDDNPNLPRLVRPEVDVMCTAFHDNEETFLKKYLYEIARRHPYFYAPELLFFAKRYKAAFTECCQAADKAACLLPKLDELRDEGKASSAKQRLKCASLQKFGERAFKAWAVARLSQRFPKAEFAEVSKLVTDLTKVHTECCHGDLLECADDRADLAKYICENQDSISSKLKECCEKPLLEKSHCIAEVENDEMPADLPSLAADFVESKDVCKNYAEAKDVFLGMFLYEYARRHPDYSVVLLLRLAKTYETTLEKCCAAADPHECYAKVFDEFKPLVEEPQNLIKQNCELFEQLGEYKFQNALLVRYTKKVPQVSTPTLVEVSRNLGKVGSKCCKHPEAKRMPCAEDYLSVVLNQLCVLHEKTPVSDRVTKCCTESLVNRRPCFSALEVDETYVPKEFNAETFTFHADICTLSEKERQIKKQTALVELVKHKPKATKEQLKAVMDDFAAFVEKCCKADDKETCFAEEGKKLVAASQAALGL
Description: as §2, §3

[4] = biological target: T1, AMACR (alpha-methylacyl-CoA racemase, …); experiment: apparent Kd; fluorescent ELAA, AMACR coated at 0.2 uM; 50 mM Tris/HCl, 100 mM NaCl, 4 mM KCl, 2.5 mM MgCl2, 1 mM CaCl2, pH 7.4, room temperature; conditions: label: biotin; stem-loops, B-form-like CD
Description: as §1

[5] = biological target: T2, Human serum albumin (HSA); experiment: ELAA, 0.5 uM aptamer, 0.2 uM protein; also no significant cross-reactivity in FIG. 6 dose series; conditions: tags: Sigma-Aldrich; label: biotin; stem-loops, B-form-like CD
Description: as §1

Binder | Kd [1] | binding result [2] | binding result [3] | Kd [4] | binding result [5]
B1 | 65 nM | no binding | no binding |  | 
B2 | 139 nM | no binding | no binding |  | 
B3 |  | no binding |  | 49 nM | no binding
